Measurements published in patent publication US5847088A, “Antibodies specific for platelet-activating factor acetylhydrolase” (ICOS Corporation, priority 1995, dated 1998).
Residue numbers refer to the chain shown, from its start. In names and notes the source's numbering stands.

B1: C291S: PAF-AH analog, Cys291 mutated to serine (protein)
chain: MVPPKLHVLFCLCGCLAVVYPFDWQYINPVAHMKSSAWVNKIQVLMAAASFGQTKIPRGNGPYSVGCTDLMFDHTNKGTFLRLYYPSQDNDRLDTLWIPNKEYFWGLSKFLGTHWLMGNILRLLFGSMTTPANWNSPLRPGEKYPLVVFSHGLGAFRTLYSAIGIDLASHGFIVAAVEHRDRSASATYYFKDQSAAEIGDKSWLYLRTLKQEEETHIRNEQVRQRAKECSQALSLILDIDHGKPVKNALDLKFDMEQLKDSIDREKIAVIGHSFGGATVIQTLSEDQRFRSGIALDAWMFPLGDEVYSRIPQPLFFINSEYFQYPANIIKMKKCYSPDKERKMITIRGSVHQNFADFTFATGKIIGHMLKLKGDIDSNVAIDLSNKASLAFLQKHLGLHKDFDQWDCLIEGDDENLIPGTNINTTNQHIMLQNSSGIEKYN
B2: C334S: PAF-AH analog, cysteine mutated to serine (protein)
chain: B1 chain with S291C, C334S
B3: C407S: PAF-AH analog, cysteine mutated to serine (protein)
chain: B1 chain with S291C, C407S
B4: V279F: PAF-AH with phenylalanine for valine at position 279, mutation of PAF-AH deficient patients (protein)
chain: B1 chain with V279F, S291C

Test: PAF-AH activity of PAF-AH products expressed in E. coli (hydrolysis of 3H-acetate from [acetyl-3H] PAF)
Type: biochemical
Settings: for PAF-AH activity: amino acid substitution products expressed in E. coli

Molecule | PAF-AH activity | PAF-AH activity of mutant expression construct (E. coli, control construct lacking the mutation fully active)
B1 | + (1-10 U/ml/OD600 activity) | –
B2 | ++++ (wild type PAF-AH activity of about 40-60 U/ml/OD600) | –
B3 | +++ (about 20-40 U/ml/OD600 activity) | –
B4 | – | no PAF-AH activity
